In US10005846 (LIFEARC, dated 2018):
Substitutions are numbered along the chain they refer to. Values belong to the binder of their own block, whether it stands above or below them.

How the values were obtained:
[1] = target: T1, human transglutaminase type 2 (TG2) (human, UniProt P21980 1-687); experiment: cell-based or functional assay
T1 sequence: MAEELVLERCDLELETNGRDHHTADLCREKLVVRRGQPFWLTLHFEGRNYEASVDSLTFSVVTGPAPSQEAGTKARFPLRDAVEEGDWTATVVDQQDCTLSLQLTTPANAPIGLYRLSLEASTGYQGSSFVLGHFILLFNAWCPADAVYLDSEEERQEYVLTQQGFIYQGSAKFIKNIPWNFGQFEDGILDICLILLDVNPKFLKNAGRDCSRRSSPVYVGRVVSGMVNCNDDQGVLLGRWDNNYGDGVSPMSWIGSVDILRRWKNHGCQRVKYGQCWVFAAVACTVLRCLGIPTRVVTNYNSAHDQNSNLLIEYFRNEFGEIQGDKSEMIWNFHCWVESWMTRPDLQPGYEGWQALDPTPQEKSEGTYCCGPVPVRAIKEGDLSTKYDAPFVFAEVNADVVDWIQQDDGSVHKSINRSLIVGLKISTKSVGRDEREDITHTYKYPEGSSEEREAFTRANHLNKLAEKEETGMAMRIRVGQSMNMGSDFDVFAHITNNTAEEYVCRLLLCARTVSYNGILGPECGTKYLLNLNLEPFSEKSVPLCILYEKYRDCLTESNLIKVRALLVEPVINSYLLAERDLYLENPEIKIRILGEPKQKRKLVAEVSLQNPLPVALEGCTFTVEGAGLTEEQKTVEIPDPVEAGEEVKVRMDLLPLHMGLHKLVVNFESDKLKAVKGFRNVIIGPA

[2] = target: T1, human transglutaminase type 2 (TG2); experiment: ELISA on immobilised human TG2; r2 0.9682; EC50 95% confidence range 0.03611 to 0.06410 [continued), panel B]
Description: (§1) Antibody binding to human and cynomolgus monkey TG2 was determined in an ELISA assay. Clear polystyrene "Maxisorp" 96-well plates (Nunc) were coated with 50 ng purified human or cynomogulus monkey TG2 in 50 µl 0.05 M carbonate-bicarbonate buffer pH 9.6 at 4° C. overnight. Control wells were coated with 50 µl 100 µg/ml bovine serum albumin (BSA). Plates were washed 3× with 300 µl phosphate-buffered saline pH7.4 (PBS) containing 0.1% Tween 20 (PBST) and blocked with 300 µl 3% w/v Marvel skimmed milk in PBS for 1 hour at room temperature. After 3× wash with PBST, 50 µl protein-A purified chimeric or humanised anti-TG2 antibodies or human IgG1 kappa […] control antibody or CUB7402 (Abcam) were serially diluted 4-fold from a top concentration of 50 nM in PBS, and added to the plate in duplicate. […] After 3× washes with PBST, the plates were developed with 50 µl TMB substrate (Sigma) for 5 min at room temperature before stopping the reaction with 25 µl 0.5M H2SO4 and reading absorbance at 450 nm in a microtiter plate reader (BioTek EL808). Dose response curves were analysed and EC50 values and other statistical parameters determined using a 4-parameter logistical fit of the data (GraphPad Prism).

cynomolgus monkey TG2 [3] = target: T2, cynomolgus monkey TG2 (cynomolgus monkey, UniProt A0A2K5VXI8 1-687); experiment: ELISA on immobilised cynomolgus monkey TG2; r2 0.9986; EC50 95% confidence range 0.6682 to 0.8162 [panel A]
T2 construct: Bought recombinant protein; also called cynomogulus monkey TG2; cyano TG2
T2 sequence: T1 sequence with E4D, Q157R, N177S, H413S, I421T, Y528H, V542I
Description: as §1

[4] = target: T1, human transglutaminase type 2 (TG2); experiment: cell-based or functional assay; remark: listed apart in the source
cynomolgus monkey TG2 [5] = target: T2, cynomolgus monkey TG2; experiment: ELISA on immobilised cynomolgus monkey TG2; r2 0.9992; EC50 95% confidence range 0.3040 to 0.3536 [panel A]
Description: as §1

IC50 of enzymatic inhibition, dansylated lysine incorporation into N,N-dimethylated casein [panel B] [1]: 0.925 nM | EC50 [2]: 0.0481 nM
B1: cBB001 chimeric antibody (murine BB7 variable regions) (antibody, human IgG1, V domains shown)
VH: AVQLVESGGGLVKPGGSLKLSCAASGIIFSSSAMSWVRQTPEKRLEWVATISSGGRSTYYPDSVKGRFTVSRDSAKNTLYLQMDSLRSEDTAIYYCAKLISPYWGQGTTLTVSS
VL: AIKMTQSPSSMYASLGERVIITCKASQDINSYLTWFQQKPGKSPKTLIYLTNRLMDGVPSRFSGSGSGQEFLLTISGLEHEDMGIYYCLQYVDFPYTFGGGTKLEIK
notes: also called chimeric BB7

EC50 (cynomolgus monkey TG2 [3]): 0.739 nM
B2: cDH001 chimeric antibody (murine DH2 variable regions) (antibody, human IgG1, V domains shown)
VH: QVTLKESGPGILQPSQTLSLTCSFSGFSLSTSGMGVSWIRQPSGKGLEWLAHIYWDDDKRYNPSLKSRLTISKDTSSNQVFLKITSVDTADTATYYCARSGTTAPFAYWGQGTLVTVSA
VL: QIVLTQSPAIMSASPGEKVTMTCSASSSVSYMYWYQQKPGSSPRLLIYDTSNLASGVPVRFSGSGSGTSYSLTISRMEAEDAATFYCQQWSSSPLTFGAGTKLELK

IC50 of enzymatic inhibition, dansylated lysine incorporation into N,N-dimethylated casein [continued), panel D] [4]: 172 nM | EC50 (cynomolgus monkey TG2 [5]): 0.328 nM
B3: cDD9001 chimeric antibody (murine DD9 variable regions) (antibody, human IgG1, V domains shown)
VH: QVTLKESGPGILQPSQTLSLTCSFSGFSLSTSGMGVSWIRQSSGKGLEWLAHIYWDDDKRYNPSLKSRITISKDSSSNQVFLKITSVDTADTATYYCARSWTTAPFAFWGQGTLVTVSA
VL: B2 VL with S30D, E78G, F85Y, S91N
